Experimental data taken from US20090304651A1 (published 2009).

B1: wild type IGF2R domain 11 (amino acids 1511-1650) with C-terminal His6 tag, from Pichia pastoris (receptor)
chain: NEHDDCQVTNPSTGHLFDLSSLSGRAGFTAAYSEKGLVYMSICGENENCPPGVGACFGQTRISVGKANKRLRYVDQVLQLVYKDGSPCPSKSGLSYKSVISFVCRPEAGPTNRPMLISLDKQTCTLFFSWHTPLACEQATHHHHHH
notes: also called WT; wild type domain 11
B2: IGF2R domain 11 E1544A (amino acids 1511-1650, C-terminal His6 tag, from Pichia pastoris) (receptor)
chain: NEHDDCQVTNPSTGHLFDLSSLSGRAGFTAAYSAKGLVYMSICGENENCPPGVGACFGQTRISVGKANKRLRYVDQVLQLVYKDGSPCPSKSGLSYKSVISFVCRPEAGPTNRPMLISLDKQTCTLFFSWHTPLACEQATHHHHHH
B3: IGF2R domain 11 E1544K (amino acids 1511-1650, C-terminal His6 tag, from Pichia pastoris) (receptor)
chain: NEHDDCQVTNPSTGHLFDLSSLSGRAGFTAAYSKKGLVYMSICGENENCPPGVGACFGQTRISVGKANKRLRYVDQVLQLVYKDGSPCPSKSGLSYKSVISFVCRPEAGPTNRPMLISLDKQTCTLFFSWHTPLACEQATHHHHHH
notes: also called enhanced mutant

Assays:
[1] = target: T1, recombinant human IGF-II (Insulin-like Growth Factor II) (human, UniProt P01344 25-91, biotinylated (Biotinyl-IGF-II, GroPep) where immobilised in SPR, site not stated; not biotinylated in ITC and as SPR analyte); test: SPR, IGF-II immobilised, major kinetic parameters
T1 construct: also called IGF2; IGF-2
Experimental: (§1) Kinetic experiments consisted of a two minute injection of analyte followed by a 100 s dissociation phase in running buffer, after which the binding surface was regenerated with a 2 minute injection of 2 M MgCl₂. A blank flow cell was used for in-line reference subtraction of changes due to differences in refractive index of running buffer versus sample and a buffer-only injection was used to subtract instrument noise and drift. Injections were performed in duplicate for each concentration and in a randomised order. Kinetic parameters were determined by global fitting of sensorgrams to a two-state (conformational change) binding model using BIAevaluation software version 4.0.1. In all cases the minor component made an insignificant contribution to the overall affinity and as such only the kinetic parameters of the major binding component were used. For each interaction the dissociation affinity constant (KD) was also calculated by fitting of the response of each concentration at equilibrium to a steady-state affinity model using BIAevaluation. […]
(§2) The affinity of versions of Fc-tagged domain 11 fusion proteins, and domain 11 constructs, for IGF-II were compared using surface plasmon resonance (BIAcore 3000). […] The Fc-tagged domain 11 kinetic data performed in triplicate generated sensorgrams that were analyzed using a bivalent analyte model.

[2] = target: T1, recombinant human IGF-II (Insulin-like …); test: SPR, IGF-II immobilised, steady state
Experimental: (§3) Kinetic analysis by Surface Plasmon Resonance (SPR) was conducted on a BIAcore 3000 biosensor (BIAcore, Uppsala, Sweden) at 25° C. in HBS-EP (10 mM HEPES, pH 7.4, 150 mM NaCl, 3 mM EDTA, 0.005% surfactant P20) at a flow rate of 40 μl/min. […] Kinetic experiments consisted of a two minute injection of analyte followed by a 100 s dissociation phase in running buffer, after which the binding surface was regenerated with a 2 minute injection of 2 M MgCl₂. A blank flow cell was used for in-line reference subtraction of changes due to differences in refractive index of running buffer versus sample and a buffer-only injection was used to subtract instrument noise and drift. Injections were performed in duplicate for each concentration and in a randomised order. Kinetic parameters were determined by global fitting of sensorgrams to a two-state (conformational change) binding model using BIAevaluation software version 4.0.1. In all cases the minor component made an insignificant contribution to the overall affinity and as such only the kinetic parameters of the major binding component were used. For each interaction the dissociation affinity constant (KD) was also calculated by fitting of the response of each concentration at equilibrium to a steady-state affinity model using BIAevaluation. In order to investigate the influence of ionic strength, kinetic experiments were conducted in HBS-EP running buffers containing the desired NaCl concentration. In each case, analyte samples were made up in the appropriate running buffer prior to injection.
(§4) Following purification, the binding of each mutant construct to IGF2 was assessed by SPR and compared to the wild type domain 11. Sensorgrams were generated using biotinylated IGF2 immobilised to the cell surface and mutant domain 11 proteins as the free analyte (FIG. 4).

[3] = target: T1, recombinant human IGF-II (Insulin-like …); test: SPR, IGF-II immobilised, kinetic fit
Experimental: as §3, §4

[4] = target: T1, recombinant human IGF-II (Insulin-like …); test: SPR, IGF-II immobilised, kinetic fit; remark: listed apart in the source
Experimental: as §3

[5] = target: T1, recombinant human IGF-II (Insulin-like …); test: SPR, IGF-II immobilised, major kinetic parameter kd1
Experimental: as §1, §2

[6] = target: T1, recombinant human IGF-II (Insulin-like …); test: SPR, steady-state KD relative to wild type
Experimental: […]. Values are the mean±S.E.M. of three separate experiments.
as §3
Following purification, the binding of each mutant construct to IGF2 was assessed by SPR and compared to the wild type domain 11.

[7] = target: T1, recombinant human IGF-II (Insulin-like …); test: SPR, IGF-II immobilised, major kinetic parameter ka1
Experimental: as §1, §2

[8] = target: T1, recombinant human IGF-II (Insulin-like …); test: SPR

T1 sequence (P01344 25-91 limits assumed): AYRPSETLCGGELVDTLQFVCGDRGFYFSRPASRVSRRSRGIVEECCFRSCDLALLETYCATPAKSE

Row | Kd [1] | Kd [2] | Kd [3] | koff [3] | kon [3] | Kd [4] | koff [4] | kon [4] | koff [5] | Relative Affinity [6] | kon [7] | relative affinity increase over wild type [8] | Binder
1 | 119 nM | 103 nM | 102 nM | 0.053 s⁻¹ | 525000 M⁻¹ s⁻¹ | 102 nM | 0.053 s⁻¹ | 525000 M⁻¹ s⁻¹ | 0.0787 s⁻¹ | 1 fold (wild type = 1.00) | 662000 M⁻¹ s⁻¹ | – | B1
2 | – | 37 nM | 36 nM | 0.033 s⁻¹ | 934000 M⁻¹ s⁻¹ | – | – | – | – | 2.79 fold (wild type = 1.00) | – | ~2.5 fold | B2
3 | 20.5 nM | – | – | – | – | – | – | – | 0.0406 s⁻¹ | – | 2.02e+06 M⁻¹ s⁻¹ | – | B3
